Patent EP4663199A1

Biological target: bispecific binding molecule comprising a first specific binding molecule (comprising SEQ ID NO:265 a)
Sequence (chain, as listed by the source, chain 1 of 3): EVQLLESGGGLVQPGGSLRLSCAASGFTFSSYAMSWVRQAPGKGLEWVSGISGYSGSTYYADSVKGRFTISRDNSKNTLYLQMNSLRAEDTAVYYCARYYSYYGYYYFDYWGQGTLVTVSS
Sequence (chain, as listed by the source, chain 2 of 3): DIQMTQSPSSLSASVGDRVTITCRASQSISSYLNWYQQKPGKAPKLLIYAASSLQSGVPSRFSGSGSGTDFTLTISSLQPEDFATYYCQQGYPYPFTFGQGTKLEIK
Sequence (chain, as listed by the source, chain 3 of 3): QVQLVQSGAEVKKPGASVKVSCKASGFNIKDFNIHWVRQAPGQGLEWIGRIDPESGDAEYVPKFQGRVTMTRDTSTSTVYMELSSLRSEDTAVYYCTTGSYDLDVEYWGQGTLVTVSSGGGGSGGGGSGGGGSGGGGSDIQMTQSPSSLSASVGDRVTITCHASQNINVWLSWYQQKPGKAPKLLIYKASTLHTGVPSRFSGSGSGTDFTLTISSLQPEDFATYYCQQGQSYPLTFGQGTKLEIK

B1: tag moiety … (SEQ ID NO:2) (peptide)
peptide: FIGITELKK
modifications: not checked
- Kd: 9.4 pM
